Measured values as given in paper PMC5571166, “Mapping the key residues of SufB and SufD essential for biosynthesis of iron-sulfur clusters” (Scientific Reports, 2017).

T1: SufB (wild type) (Escherichia coli, UniProt P77522 1-495)
T1 construct: SufB of the Escherichia coli sufABCDSE operon; Expressed from the cloned suf genes with no tag mentioned; The host is stated only for the variant complexes (YT2512, pGSO164-derived plasmid); One SufB per SufBCD complex (SufB:SufC:SufD 1:2:1); also called SufB subunit of the wild-type SufBCD complex; source: purified as the wild-type SufBCD complex; E. coli YT2512 (ΔsufABCDSE) from pBBR-sufAB, in …
T1 sequence: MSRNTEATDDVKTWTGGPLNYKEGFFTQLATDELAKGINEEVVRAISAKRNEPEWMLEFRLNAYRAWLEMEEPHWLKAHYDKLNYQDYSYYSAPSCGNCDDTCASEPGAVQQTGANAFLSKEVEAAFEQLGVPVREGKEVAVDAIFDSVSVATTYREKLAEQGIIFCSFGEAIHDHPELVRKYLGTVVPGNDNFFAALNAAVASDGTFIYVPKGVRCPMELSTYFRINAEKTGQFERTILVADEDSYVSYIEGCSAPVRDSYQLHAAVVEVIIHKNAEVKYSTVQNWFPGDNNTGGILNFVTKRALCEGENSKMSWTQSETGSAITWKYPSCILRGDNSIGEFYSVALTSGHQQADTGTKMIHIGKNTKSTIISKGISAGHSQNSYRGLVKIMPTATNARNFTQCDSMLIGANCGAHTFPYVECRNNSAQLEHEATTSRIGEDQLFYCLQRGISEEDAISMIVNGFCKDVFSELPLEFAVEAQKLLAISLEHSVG

B1: SufD (natural protein, Escherichia coli)
chain: MAGLPNSSNALQQWHHLFEAEGTKRSPQAQQHLQQLLRTGLPTRKHENWKYTPLEGLINSQFVSIAGEISPQQRDALALTLDSVRLVFVDGRYVPALSDATEGSGYEVSINDDRQGLPDAIQAEVFLHLTESLAQSVTHIAVKRGQRPAKPLLLMHITQGVAGEEVNTAHYRHHLDLAEGAEATVIEHFVSLNDARHFTGARFTINVAANAHLQHIKLAFENPLSHHFAHNDLLLAEDATAFSHSFLLGGAVLRHNTSTQLNGENSTLRINSLAMPVKNEVCDTRTWLEHNKGFCNSRQLHKTIVSDKGRAVFNGLINVAQHAIKTDGQMTNNNLLMGKLAEVDTKPQLEIYADDVKCSHGATVGRIDDEQIFYLRSRGINQQDAQQMIIYAFAAELTEALRDEGLKQQVLARIGQRLPGGAR
notes: SufD of the Escherichia coli sufABCDSE operon; One SufD per SufBCD complex (1:2:1); also called SufD subunit of the SufBCD complex

Legend:
SufD = molecular target: B1; experiment: SEC; SufBCD complexes co-expressed in E. coli and co-purified on Phenyl FF, Q XL and Sephacryl S-200; eluted from gel filtration at about 160 kDa; subunit composition checked by SDS-PAGE of the purified sample; details: both partners purified
SufB (wild type) = molecular target: T1, SufB (wild type); experiment: as above; details: both partners purified

Binder	binding result (SufD)	binding result (SufB (wild type))
SufC (natural protein, Escherichia coli, SufC of the Escherichia coli sufABCDSE operon; also called SufC subunit of the SufBCD complex) MLSIKDLHVSVEDKAILRGLSLDVHPGEVHAIMGPNGSGKSTLSATLAGREDYEVTGGTVEFKGKDLLALSPEDRAGEGIFMAFQYPVEIPGVSNQFFLQTALNAVRSYRGQETLDRFDFQDLMEEKIALLKMPEDLLTRSVNVGFSGGEKKRNDILQMAVLEPELCILDESDSGLDIDALKVVADGVNSLRDGKRSFIIVTHYQRILDYIKPDYVHVLYQGRIVKSGDFTLVKQLEEQGYGWLTEQQ	binds	binds
B1		binds
